Target: PfHsp90 (Plasmodium falciparum (endogenous in strain 3D7)) (UniProt Q8IC05)

- decrease in signal of the precursor PfHsp60 spot in the PfHsp60 immunoprecipitate of 35S-labelled parasites treated with 5 uM Geldanamycin against DMSO (2DGE, phosphorimaging): 80%
Substance: precursor PfHsp60 (natural protein)
